Common to all, as to assay: SPR
Test [1] concerns the target hAPN ectodomain W429A mutant (human, UniProt P15144 62-963, W429A).
Test [2] deals with hAPN ectodomain K379A mutant (human, UniProt P15144 62-963, K379A).
In test [3] the target is hAPN ectodomain E745A mutant (human, UniProt P15144 62-963, E745A).
The target of test [4] is hAPN ectodomain Y316A mutant (human, UniProt P15144 62-963, Y316A).
In test [5] the target is T1, pAPN ectodomain E421A mutant (pig, UniProt P15145 58-961, E421A).
T1 sequence: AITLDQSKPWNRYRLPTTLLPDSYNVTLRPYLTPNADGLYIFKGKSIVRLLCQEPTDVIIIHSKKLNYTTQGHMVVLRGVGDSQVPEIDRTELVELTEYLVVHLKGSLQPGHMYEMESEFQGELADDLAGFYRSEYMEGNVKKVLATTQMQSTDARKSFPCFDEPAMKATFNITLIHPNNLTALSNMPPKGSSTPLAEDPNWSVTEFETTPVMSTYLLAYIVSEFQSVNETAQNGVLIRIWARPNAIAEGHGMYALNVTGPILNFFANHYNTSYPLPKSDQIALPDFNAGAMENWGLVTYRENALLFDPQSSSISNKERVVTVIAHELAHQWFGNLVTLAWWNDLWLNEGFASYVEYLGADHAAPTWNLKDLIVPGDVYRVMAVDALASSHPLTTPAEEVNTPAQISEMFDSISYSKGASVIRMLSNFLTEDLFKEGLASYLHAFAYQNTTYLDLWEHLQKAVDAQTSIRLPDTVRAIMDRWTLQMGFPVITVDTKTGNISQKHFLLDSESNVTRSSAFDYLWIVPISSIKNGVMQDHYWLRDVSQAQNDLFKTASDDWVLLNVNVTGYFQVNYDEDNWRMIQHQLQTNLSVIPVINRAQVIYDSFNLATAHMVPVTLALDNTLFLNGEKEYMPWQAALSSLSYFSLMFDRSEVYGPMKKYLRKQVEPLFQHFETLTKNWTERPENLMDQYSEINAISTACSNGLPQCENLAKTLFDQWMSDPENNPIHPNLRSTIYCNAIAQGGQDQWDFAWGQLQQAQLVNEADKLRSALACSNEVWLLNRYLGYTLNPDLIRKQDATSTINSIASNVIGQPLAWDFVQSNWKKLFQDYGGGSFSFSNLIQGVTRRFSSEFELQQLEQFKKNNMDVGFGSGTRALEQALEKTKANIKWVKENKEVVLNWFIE

Test [6] addresses hAPN ectodomain E426A mutant (human, UniProt P15144 62-963, E426A).
Test [7] has as its target T2, human aminopeptidase N (hAPN) ectodomain, residues 62-963, wild type (human, UniProt P15144 62-963).
T2 chain: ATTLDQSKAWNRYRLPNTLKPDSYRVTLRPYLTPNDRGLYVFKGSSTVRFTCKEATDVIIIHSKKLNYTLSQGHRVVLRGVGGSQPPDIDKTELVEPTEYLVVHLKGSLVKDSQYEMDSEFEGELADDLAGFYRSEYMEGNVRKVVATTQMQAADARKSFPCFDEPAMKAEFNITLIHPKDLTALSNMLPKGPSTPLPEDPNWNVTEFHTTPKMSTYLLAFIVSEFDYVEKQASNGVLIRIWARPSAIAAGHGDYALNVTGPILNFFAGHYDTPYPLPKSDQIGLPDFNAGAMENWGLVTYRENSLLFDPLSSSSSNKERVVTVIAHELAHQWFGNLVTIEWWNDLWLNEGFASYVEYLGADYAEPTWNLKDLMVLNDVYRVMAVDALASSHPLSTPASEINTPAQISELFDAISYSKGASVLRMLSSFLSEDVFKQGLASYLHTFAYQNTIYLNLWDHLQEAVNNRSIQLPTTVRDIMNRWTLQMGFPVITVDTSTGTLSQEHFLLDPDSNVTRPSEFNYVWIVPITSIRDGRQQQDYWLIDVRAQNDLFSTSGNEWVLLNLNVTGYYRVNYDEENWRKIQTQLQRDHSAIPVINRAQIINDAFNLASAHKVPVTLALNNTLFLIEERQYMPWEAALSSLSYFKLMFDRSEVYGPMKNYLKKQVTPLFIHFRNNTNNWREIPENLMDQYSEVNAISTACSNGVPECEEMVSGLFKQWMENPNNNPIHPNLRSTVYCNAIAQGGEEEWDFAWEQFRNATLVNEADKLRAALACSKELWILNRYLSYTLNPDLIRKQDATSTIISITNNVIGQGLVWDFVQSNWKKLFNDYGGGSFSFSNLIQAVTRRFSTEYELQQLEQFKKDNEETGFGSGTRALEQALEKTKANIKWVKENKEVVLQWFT

Sequence of hAPN ectodomain W429A mutant (P15144 62-963 W429A): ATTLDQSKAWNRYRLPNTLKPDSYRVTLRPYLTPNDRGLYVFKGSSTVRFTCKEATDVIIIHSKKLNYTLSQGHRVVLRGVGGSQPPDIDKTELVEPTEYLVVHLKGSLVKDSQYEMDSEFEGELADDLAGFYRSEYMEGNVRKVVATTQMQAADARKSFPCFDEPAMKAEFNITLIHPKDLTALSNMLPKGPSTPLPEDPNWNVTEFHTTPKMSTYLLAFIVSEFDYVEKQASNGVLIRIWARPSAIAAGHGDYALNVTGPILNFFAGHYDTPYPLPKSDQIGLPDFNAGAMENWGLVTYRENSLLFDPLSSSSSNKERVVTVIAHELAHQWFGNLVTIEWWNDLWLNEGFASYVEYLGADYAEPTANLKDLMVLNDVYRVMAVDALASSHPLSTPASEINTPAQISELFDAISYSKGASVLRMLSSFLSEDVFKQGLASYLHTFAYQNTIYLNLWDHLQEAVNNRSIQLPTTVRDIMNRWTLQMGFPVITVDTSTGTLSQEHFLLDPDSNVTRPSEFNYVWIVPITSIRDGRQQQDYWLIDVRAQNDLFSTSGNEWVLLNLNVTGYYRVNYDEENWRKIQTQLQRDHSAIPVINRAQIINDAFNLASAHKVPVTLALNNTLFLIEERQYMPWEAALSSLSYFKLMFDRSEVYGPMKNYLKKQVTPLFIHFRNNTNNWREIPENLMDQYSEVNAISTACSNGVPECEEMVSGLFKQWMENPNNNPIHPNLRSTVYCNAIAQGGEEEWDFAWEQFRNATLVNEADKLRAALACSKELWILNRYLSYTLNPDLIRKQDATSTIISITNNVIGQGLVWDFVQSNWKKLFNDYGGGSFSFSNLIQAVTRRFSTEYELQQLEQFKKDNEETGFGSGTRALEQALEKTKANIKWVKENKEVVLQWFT
Sequence of hAPN ectodomain Y316A mutant (P15144 62-963 Y316A): as the sequence (P15144 62-963 W429A) above, with Y255A, A368W counted along it
Sequence of hAPN ectodomain E745A mutant (P15144 62-963 E745A): as the sequence (P15144 62-963 W429A) above, with A368W, E684A counted along it
Sequence of hAPN ectodomain K379A mutant (P15144 62-963 K379A): as the sequence (P15144 62-963 W429A) above, with K318A, A368W counted along it

B1: PDCoV spike (S) protein receptor binding domain (RBD), residues 300-419, wild type (domain or fragment)
chain: PKLPELEVVQLNISAHMDFGEARLDSVTINGNTSYCVTKPYFRLETNFMCTGCTMNLRTDTCSFDLSAVNNGMSFSQFCLSTESGACEMKIIVTYVWNYLLRQRLYVTAVEGQTHTGTTS
On to B1, for which the dissociation constant Kd was 127 µM in test [1]; 444 µM in test [2]; 3.06 µM in test [3]; 37.1 µM in test [4]; 125 µM in test [5]; 334 µM in test [6]. The molecule further showed a Kd in test [7] of 3.71 µM.
